Ten molecules from US20220096654A1, “PYRROLOBENZODIAZEPINE-ANTIBODY CONJUGATES AND USES THEREOF” (ADC THERAPEUTICS SA, priority 2020, published 2022) can be followed below.

Test in all cases: cell-based or functional assay
Assay [1] concerns the target T1, human CD45 (human, UniProt P08575 26-1306).
T1 sequence: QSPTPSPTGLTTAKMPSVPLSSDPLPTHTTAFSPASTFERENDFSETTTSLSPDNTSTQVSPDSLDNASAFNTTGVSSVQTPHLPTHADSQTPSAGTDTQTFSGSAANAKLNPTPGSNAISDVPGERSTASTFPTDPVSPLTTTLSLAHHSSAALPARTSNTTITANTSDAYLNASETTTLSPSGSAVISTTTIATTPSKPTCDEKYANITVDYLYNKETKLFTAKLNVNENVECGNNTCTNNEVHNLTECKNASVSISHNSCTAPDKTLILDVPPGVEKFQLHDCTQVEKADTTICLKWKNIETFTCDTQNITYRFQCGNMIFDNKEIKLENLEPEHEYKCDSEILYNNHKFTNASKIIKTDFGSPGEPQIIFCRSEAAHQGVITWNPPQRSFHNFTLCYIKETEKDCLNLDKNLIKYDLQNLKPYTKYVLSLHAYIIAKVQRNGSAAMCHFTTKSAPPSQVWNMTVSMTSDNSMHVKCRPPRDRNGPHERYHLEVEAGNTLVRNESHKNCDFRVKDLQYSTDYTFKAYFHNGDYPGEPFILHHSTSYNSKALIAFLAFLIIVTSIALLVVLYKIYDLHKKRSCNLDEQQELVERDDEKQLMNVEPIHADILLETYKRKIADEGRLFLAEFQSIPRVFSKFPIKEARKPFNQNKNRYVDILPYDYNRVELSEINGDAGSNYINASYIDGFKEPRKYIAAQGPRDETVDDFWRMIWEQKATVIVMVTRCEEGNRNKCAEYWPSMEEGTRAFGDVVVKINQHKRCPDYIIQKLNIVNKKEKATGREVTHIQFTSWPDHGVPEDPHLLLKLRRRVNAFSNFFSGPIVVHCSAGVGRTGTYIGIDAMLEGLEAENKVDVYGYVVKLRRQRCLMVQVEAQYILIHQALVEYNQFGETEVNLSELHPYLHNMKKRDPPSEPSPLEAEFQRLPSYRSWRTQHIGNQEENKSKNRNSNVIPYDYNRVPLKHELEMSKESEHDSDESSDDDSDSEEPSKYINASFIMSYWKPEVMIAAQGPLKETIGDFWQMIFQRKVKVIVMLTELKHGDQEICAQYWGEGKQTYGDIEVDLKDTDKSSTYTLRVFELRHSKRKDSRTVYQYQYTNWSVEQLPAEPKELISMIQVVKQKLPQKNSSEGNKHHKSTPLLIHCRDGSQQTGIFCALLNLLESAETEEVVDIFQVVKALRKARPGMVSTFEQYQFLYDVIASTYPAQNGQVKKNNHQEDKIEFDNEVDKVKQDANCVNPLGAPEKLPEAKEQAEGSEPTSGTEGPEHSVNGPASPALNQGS

The target of assay [2] is T1, human CD45. This is another data set of the same source.
Assay [3] deals with T1, human CD45. This is another data set of the same source.

B1: YTH24.5-rat IgG2b-PBD (drug-linker B1) (antibody, V domains shown)
VH: QVNLLQSGAALVKPGASVKLSCKASSYTFTDYYIHWVKQSHGKTLEWIGYINPKSGFTNYNEKFRRKATLTVDKSTNTAYMDISRLTSEDSATYYCTRRTGVIPMDAWGQGASVTVSS
VL: DVVMTQTPVSLSVSLGGQVSISCRSSQSFVSSDGNTYLNWYLQKPGQSPQLLIYKVSNRLSGVPDRFSGSGSGTDFTLKISRVEHDDLGVYYCGQASKIPLTFGSGTKLEIKR
modifications: PBD dimer drug-linker B1; light chains unconjugated or attached to a single molecule of B1; sites not given; PBD dimer drug-linker B1 conjugated after TCEP reduction; heavy chains attached to up to five molecules of B1; sites not given; DAR 1.94 (preparation) / 2.00
B1: in the assay with human CD45 [1], the “Average EC50, viability assay, Jurkat (CD45+), 5 days” value (from here on “Average EC50, viability assay, Jurkat”) came out at 0.213 pM and the “Average EC50, viability assay, OCIM1 (CD45+), 5 days” value (“Average EC50, viability assay, OCIM1” for short) is 0.03 pM. For the same molecule, in the assay with human CD45 [2], the “EC50, clonogenic assay, CD34+ PBSC (CD45+)” value (“EC50 … CD34+ PBSC (CD45+)” below) is 16.5 pM; the “EC50, viability assay, Jurkat (CD45+), 72 h” value (“EC50 … Jurkat (CD45+), 72 h” for short) amounted to 5.36 pM; the “EC50, viability assay, OCIM1 (CD45+), 72 h” value (shortened to “EC50 … OCIM1 (CD45+), 72 h”) is 1.38 pM. Besides, the “Average EC50, clonogenic assay, primary human CD34+ cells” value (shortened to “Average EC50, clonogenic assay”) with human CD45 [3] was found to be 2.64 pM.

B2: YTH24.5-hIgG1-AAA-PBD (antibody, DAR 2.08, V domains shown)
VH: QVNLLQSGAALVKPGASVKLSCKASSYTFTDYYIHWVKQSHGKTLEWIGYINPKSGFTNYNEKFRRKATLTVDKSTNTAYMDISRLTSEDSATYYCTRRTGVIPMDAWGQGASVTVSS
VL: DVVMTQTPVSLSVSLGGQVSISCRSSQSFVSSDGNTYLNWYLQKPGQSPQLLIYKVSNRLSGVPDRFSGSGSGTDFTLKISRVEHDDLGVYYCGQASKIPLTFGSGTKLEIK
For B2, in the assay with human CD45 [2], the “EC50 … CD34+ PBSC (CD45+)” value stood at 7.9 pM; the “EC50 … Jurkat (CD45+), 72 h” value was determined as 23 pM; the “EC50 … OCIM1 (CD45+), 72 h” value amounted to 6.8 pM.

B3: YTH24.5-B7 (antibody, V domains shown)
VH: QVNLLQSGAALVKPGASVKLSCKASSYTFTDYYIHWVKQSHGKTLEWIGYINPKSGFTNYNEKFRRKATLTVDKSTNTAYMDISRLTSEDSATYYCTRRTGVIPMDAWGQGASVTVSS
VL: DVVMTQTPVSLSVSLGGQVSISCRSSQSFVSSDGNTYLNWYLQKPGQSPQLLIYKVSNRLSGVPDRFSGSGSGTDFTLKISRVEHDDLGVYYCGQASKIPLTFGSGTKLEIKR
modifications: PBD drug-linker B7 conjugated; sites and DAR not stated
For B3, in the assay with human CD45 [1], the “Average EC50, viability assay, Jurkat” value was found to be 8.4 pM and the “Average EC50, viability assay, OCIM1” value is 2.18 pM. Moreover, the “Average EC50, clonogenic assay” value in the assay with human CD45 [3] is 35.5 pM.

B4: YTH24.5-B2 (antibody, V domains shown)
VH: QVNLLQSGAALVKPGASVKLSCKASSYTFTDYYIHWVKQSHGKTLEWIGYINPKSGFTNYNEKFRRKATLTVDKSTNTAYMDISRLTSEDSATYYCTRRTGVIPMDAWGQGASVTVSS
VL: DVVMTQTPVSLSVSLGGQVSISCRSSQSFVSSDGNTYLNWYLQKPGQSPQLLIYKVSNRLSGVPDRFSGSGSGTDFTLKISRVEHDDLGVYYCGQASKIPLTFGSGTKLEIKR
modifications: PBD drug-linker B2 conjugated; sites and DAR not stated
Turning to B4, in the assay with human CD45 [1], the “Average EC50, viability assay, Jurkat” value is 2.12 pM and the “Average EC50, viability assay, OCIM1” value was 0.025 pM. Also, the “Average EC50, clonogenic assay” value with human CD45 [3] was determined as 32.7 pM.

B5: YTH24.5-B4 (antibody, V domains shown)
VH: QVNLLQSGAALVKPGASVKLSCKASSYTFTDYYIHWVKQSHGKTLEWIGYINPKSGFTNYNEKFRRKATLTVDKSTNTAYMDISRLTSEDSATYYCTRRTGVIPMDAWGQGASVTVSS
VL: DVVMTQTPVSLSVSLGGQVSISCRSSQSFVSSDGNTYLNWYLQKPGQSPQLLIYKVSNRLSGVPDRFSGSGSGTDFTLKISRVEHDDLGVYYCGQASKIPLTFGSGTKLEIKR
modifications: PBD drug-linker B4 (non-cleavable) conjugated; sites and DAR not stated
Turning to B5, in the assay with human CD45 [1], the “Average EC50, viability assay, Jurkat” value is 0.052 pM and the “Average EC50, viability assay, OCIM1” value was determined as 0.096 pM. Further, the “Average EC50, clonogenic assay” value with human CD45 [3] was found to be 4.92 pM.

B6: YTH54.12-hIgG1-AAA-PBD (antibody, DAR 2.10, V domains shown)
VH: EVQLVESGGGLVQPGGSMKLSCAASGFTFSDYYMAWVRQAPKKGLEWVASMSFAGSSTYYGDSVKGRFTISRDNAKTTLYLQMNSLRSEDTATYYCARMYTTDYYLYWYFDFWGPGTMVTVSS
VL: DVQMTQSPSYLAASPGESVSISCKASKSISNYLAWYQQKPGEANKILIYSGSTLQSGTPSRFSGSGSGTDFSLTIRNLEPEDFAVYYCQQYDEKPLTFGSGTKLEIK
With B6, in the assay with human CD45 [2], the “EC50 … CD34+ PBSC (CD45+)” value was 6.4 pM; the “EC50 … Jurkat (CD45+), 72 h” value came to 18 pM; the “EC50 … OCIM1 (CD45+), 72 h” value was 9.7 pM.

B7: YTH54.12-B7 (antibody, V domains shown)
VH: EVQLVESGGGLVQPGGSMKLSCAASGFTFSDYYMAWVRQAPKKGLEWVASMSFAGSSTYYGDSVKGRFTISRDNAKTTLYLQMNSLRSEDTATYYCARMYTTDYYLYWYFDFWGPGTMVTVSS
VL: DVQMTQSPSYLAASPGESVSISCKASKSISNYLAWYQQKPGEANKILIYSGSTLQSGTPSRFSGSGSGTDFSLTIRNLEPEDFAVYYCQQYDEKPLTFGSGTKLEIKR
modifications: PBD drug-linker B7 conjugated; sites and DAR not stated
In the case of B7, in the assay with human CD45 [1], the “Average EC50, viability assay, Jurkat” value was 4.79 pM and the “Average EC50, viability assay, OCIM1” value worked out at 1.07 pM. Moreover, in the assay with human CD45 [3], the “Average EC50, clonogenic assay” value is 45.1 pM.

B8: YTH54.12-B4 (antibody, V domains shown)
VH: EVQLVESGGGLVQPGGSMKLSCAASGFTFSDYYMAWVRQAPKKGLEWVASMSFAGSSTYYGDSVKGRFTISRDNAKTTLYLQMNSLRSEDTATYYCARMYTTDYYLYWYFDFWGPGTMVTVSS
VL: DVQMTQSPSYLAASPGESVSISCKASKSISNYLAWYQQKPGEANKILIYSGSTLQSGTPSRFSGSGSGTDFSLTIRNLEPEDFAVYYCQQYDEKPLTFGSGTKLEIKR
modifications: PBD drug-linker B4 (non-cleavable) conjugated; sites and DAR not stated
B8: in the assay with human CD45 [1], the “Average EC50, viability assay, Jurkat” value came out at 0.091 pM and the “Average EC50, viability assay, OCIM1” value amounted to 0.22 pM. In addition, the “Average EC50, clonogenic assay” value with human CD45 [3] is 4.47 pM.

B9: YTH54.12-B2 (antibody, V domains shown)
VH: EVQLVESGGGLVQPGGSMKLSCAASGFTFSDYYMAWVRQAPKKGLEWVASMSFAGSSTYYGDSVKGRFTISRDNAKTTLYLQMNSLRSEDTATYYCARMYTTDYYLYWYFDFWGPGTMVTVSS
VL: DVQMTQSPSYLAASPGESVSISCKASKSISNYLAWYQQKPGEANKILIYSGSTLQSGTPSRFSGSGSGTDFSLTIRNLEPEDFAVYYCQQYDEKPLTFGSGTKLEIKR
modifications: PBD drug-linker B2 conjugated; sites and DAR not stated
For B9, in the assay with human CD45 [1], the “Average EC50, viability assay, Jurkat” value came to 2.43 pM and the “Average EC50, viability assay, OCIM1” value is 0.58 pM. In the assay with human CD45 [3], the “Average EC50, clonogenic assay” value is 23.9 pM.

B10: YTH54.12-rat IgG2b-PBD (drug-linker B1) (antibody, V domains shown)
VH: EVQLVESGGGLVQPGGSMKLSCAASGFTFSDYYMAWVRQAPKKGLEWVASMSFAGSSTYYGDSVKGRFTISRDNAKTTLYLQMNSLRSEDTATYYCARMYTTDYYLYWYFDFWGPGTMVTVSS
VL: DVQMTQSPSYLAASPGESVSISCKASKSISNYLAWYQQKPGEANKILIYSGSTLQSGTPSRFSGSGSGTDFSLTIRNLEPEDFAVYYCQQYDEKPLTFGSGTKLEIKR
modifications: PBD dimer drug-linker B1; light chains unconjugated or attached to a single molecule of B1; sites not given; PBD dimer drug-linker B1 conjugated after TCEP reduction; heavy chains attached to up to five molecules of B1; sites not given; DAR 1.90 (preparation) / 2.00
Regarding B10, in the assay with human CD45 [1], the “Average EC50, viability assay, Jurkat” value is 0.127 pM and the “Average EC50, viability assay, OCIM1” value was found to be 0.039 pM. For the same molecule, in the assay with human CD45 [2], the “EC50 … CD34+ PBSC (CD45+)” value turned out to be 23 pM; the “EC50 … Jurkat (CD45+), 72 h” value was 4.44 pM; the “EC50 … OCIM1 (CD45+), 72 h” value was 1.89 pM. In addition, in the assay with human CD45 [3], the “Average EC50, clonogenic assay” value came to 1.52 pM.
